For test [1], the target named is mupain-1 (synthetic construct).
The target of test [2] is mupain-1 (synthetic construct). To be noted: cited from earlier work.
For test [3], the target named is mupain-1 (synthetic construct). The conditions noted are these: cited from earlier work. The source holds these as a separate data set.
For test [4], the target named is urokinase-type plasminogen activator (muPA) (Mus musculus) (UniProt P06869). The conditions noted are these: cited from earlier work.
Test [5] concerns the target mupain-1 (synthetic construct). The test is described as follows: SPR.
Test [6] deals with mupain-1 (synthetic construct). This is another data set of the same source.
Test [7] deals with mupain-1 (synthetic construct). The source holds these as a separate data set.
Test [8] addresses mupain-1 (synthetic construct). The conditions noted are these: cited from earlier work. This is another data set of the same source.
For test [9], the target named is mupain-1 (synthetic construct). To be noted: cited from earlier work. This is another data set of the same source.
Test [10] deals with mupain-1 (synthetic construct). The conditions noted are these: cited from earlier work. The source holds these as a separate data set.
In test [11] the target is mupain-1 (synthetic construct). The conditions noted are these: cited from earlier work. This is another data set of the same source.

Like-named read-outs stand apart in the source and are kept apart here.

plasma kallikrein, P03952, sequence (P03952 391-638): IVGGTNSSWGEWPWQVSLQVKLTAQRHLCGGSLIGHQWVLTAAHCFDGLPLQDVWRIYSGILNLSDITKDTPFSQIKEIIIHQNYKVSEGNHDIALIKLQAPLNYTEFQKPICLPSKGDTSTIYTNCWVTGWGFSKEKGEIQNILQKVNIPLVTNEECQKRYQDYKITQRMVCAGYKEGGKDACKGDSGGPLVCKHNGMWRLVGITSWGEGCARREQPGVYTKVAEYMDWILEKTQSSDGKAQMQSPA
factor XIa catalytic domain, sequence (P03951 388-625): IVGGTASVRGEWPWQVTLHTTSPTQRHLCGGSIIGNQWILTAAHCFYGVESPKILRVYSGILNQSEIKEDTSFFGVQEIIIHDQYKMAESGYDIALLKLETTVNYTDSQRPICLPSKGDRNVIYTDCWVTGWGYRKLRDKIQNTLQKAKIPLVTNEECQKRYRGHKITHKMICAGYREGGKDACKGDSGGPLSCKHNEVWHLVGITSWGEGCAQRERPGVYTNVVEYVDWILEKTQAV
plasmin (from UniProt P20918), sequence (P20918 582-812): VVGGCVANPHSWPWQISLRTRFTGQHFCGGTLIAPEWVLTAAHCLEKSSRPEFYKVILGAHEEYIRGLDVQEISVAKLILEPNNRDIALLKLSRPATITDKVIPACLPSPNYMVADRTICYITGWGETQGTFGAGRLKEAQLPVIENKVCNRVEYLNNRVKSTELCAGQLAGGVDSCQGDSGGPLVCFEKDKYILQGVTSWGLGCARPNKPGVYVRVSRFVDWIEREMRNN
plasma kallikrein, P26262, sequence (P26262 391-638): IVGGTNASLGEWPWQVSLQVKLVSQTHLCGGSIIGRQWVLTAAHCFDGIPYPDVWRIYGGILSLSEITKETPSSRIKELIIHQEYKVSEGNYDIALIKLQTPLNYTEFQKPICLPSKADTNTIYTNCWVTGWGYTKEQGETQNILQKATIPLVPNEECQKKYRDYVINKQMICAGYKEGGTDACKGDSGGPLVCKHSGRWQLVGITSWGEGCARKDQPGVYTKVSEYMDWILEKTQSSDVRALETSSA
urokinase-type plasminogen activator, sequence (P06869 157-178): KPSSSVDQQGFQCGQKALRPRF
plasmin (from UniProt P00747), sequence (P00747 581-810): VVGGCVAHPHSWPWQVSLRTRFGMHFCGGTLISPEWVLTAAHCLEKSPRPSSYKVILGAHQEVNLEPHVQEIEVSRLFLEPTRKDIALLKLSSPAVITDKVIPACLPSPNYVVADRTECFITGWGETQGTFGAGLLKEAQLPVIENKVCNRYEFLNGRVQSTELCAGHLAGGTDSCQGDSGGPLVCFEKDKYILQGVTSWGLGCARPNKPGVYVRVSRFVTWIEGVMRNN
beta-trypsin, sequence (P00760 24-246): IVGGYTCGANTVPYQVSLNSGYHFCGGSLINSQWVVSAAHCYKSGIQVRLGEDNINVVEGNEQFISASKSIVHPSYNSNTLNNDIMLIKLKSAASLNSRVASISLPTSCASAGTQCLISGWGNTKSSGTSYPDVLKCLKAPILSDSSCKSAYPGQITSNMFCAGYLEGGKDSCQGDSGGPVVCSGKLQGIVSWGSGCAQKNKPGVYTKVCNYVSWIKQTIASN
urokinase-type plasminogen activator (muPA) (Mus musculus), sequence (P06869 180-433): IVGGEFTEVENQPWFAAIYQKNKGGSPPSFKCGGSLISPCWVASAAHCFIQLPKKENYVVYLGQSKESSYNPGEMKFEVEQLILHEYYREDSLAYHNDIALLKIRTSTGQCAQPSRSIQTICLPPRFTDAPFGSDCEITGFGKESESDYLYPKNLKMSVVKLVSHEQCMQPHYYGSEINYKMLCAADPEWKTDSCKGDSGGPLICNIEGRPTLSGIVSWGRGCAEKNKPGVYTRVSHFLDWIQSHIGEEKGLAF

Take KLK1, P06870: the Ki in test [1] was over 1 mM.
Turning to beta-trypsin (from UniProt P00760), in test [2], the Ki is 0.0207 mM.
As to “factor XIa catalytic domain (from UniProt P03951)”, the Ki in [3] is over 1 mM.
mupain-1: the Ki in test [4] is 0.00055 mM.
Substance plasma kallikrein, P03952 yielded a Kd in test [5] of over 1 mM. This substance showed a Ki in test [6] of over 1 mM.
For the substance plasma kallikrein, P26262, the Ki in test [7] is over 1 mM.
For the substance plasmin (from UniProt P00747), the Ki in [8] was over 1 mM.
In the case of plasmin (from UniProt P20918), in test [9], the Ki was over 1 mM.
On to “urokinase-type plasminogen activator (from UniProt P00749)”, for which the inhibition constant Ki in test [10] is over 1 mM.
As for “urokinase-type plasminogen activator (from UniProt P06869)”, in [11], the Ki was 0.00055 mM.

Values taken from paper PMC7711741.
